Measurements taken from patent US12692310B2, “ASIC1 channel antagonist antibody” (ShanghaiTech University, priority 2019, dated 2026).

Legend:
[1] = tested on: primary cortical neurons from the ASIC1a KO mice (ASIC1a−/−); test: ICC staining of primary cortical neurons from ASIC1a KO mice; format: cell-based, mouse
Method: Cell Culture. The CHO-K1 cell line (#CRL-9618; ATCC) was maintained in an F-12k media (#21127022; Gibco) containing 10% (vol/vol) FBS (#1600074; Gibco), whereas the FreeStyle 293F (#R79007; ThermoFisher Scientific) cell line was cultured in a Freestyle 293 expression media (#12338026; Thermo-Fisher Scientific). Spodoptera frugiperda 9 (Sf9) cells (#12659017; Thermo-Fisher Scientific) was cultured at 27° C. in an ESF921 media (#96-001-01; Expression Systems). Primary cortical neurons dissected from E18-d-old C57 BL/6 mice or ASIC1a^−/− mice were maintained in a Neurobasal media (#21103049; Gibco) supplemented with B27 (#17504044; Gibco) and Glutamx I (#35050061; Gibco). The CHO-K1/hASIC1a stable cell line overexpressing the full-length hASIC1a (1-528 amino acids) channel was generated as follows: The cDNA of the full-length hASIC1a with a C-terminal eYFP fusion or a C-terminal mCherry fusion was constructed, cloned into a pCDNA3.1-Neo expressing vector, and transfected into the CHO-K1 cells using Lipofectin 2000. The CHO-K1/hASIC1a stable cell line was selected by the antibiotic, geneticin (up to 1 mg/mL), and validated by the fused fluorescence proteins eYFP (λex=488 nm; λem=528 nm) or mCherry fluorescence (λex=587 nm; λem=610 nm) using flow cytometry. Over 80% positive cells survived when cultured in the presence of 200 µg/mL geneticin for 30 days. […]

[2] = tested on: hASIC1a-eYFP stable cells (6H7); test: Acidosis-induced cell death, CCK8 and LDH release; format: cell-based
Method: Acidosis-Induced Cell Death. The hASIC1a-eYFP stable cells (6H7) and CHO-K1 cells were seeded in a 96-well plate at a density of 10,000 cells per well 1 d before treatment. ECF solutions at pH 5.5, 6.0, and 7.4 were used to treat the cells at 37° C. for 6 h. To test the rescuing effect of ASC06-IgG1, the antibody was dissolved in an acidic ECF (pH 5.5) to make the final antibody concentrations of 0, 50, 100, 300, 500, and 1,000 nM. The 6H7 cells were first preincubated with the antibody at the corresponding concentrations at 37° C. for 30 min in cell media. After replacing the cell media with the corresponding acidic ECFs, the cells were incubated at 37° C. for 6 h, washed with a PBS buffer (pH 7.4), and then cultured in a 1% FBS DMEM/F-12K media overnight. The supernatants of the overnight culture were collected for the LDH release measurement using a LDH Assay kit (#88953; Thermo Fisher Scientific). The cells viability was determined using the CCK-8 assay kit (#CK04; Dojindo).
Extracellular acidosis in stroke or ischemia-reperfusion injury is known to induce the activation of ASIC1a channels, which leads to neuronal death in the central nervous system, most likely through transient increase of intracellular calcium and related cell signaling mediated by ASIC1a. The survival of hASIC1a overexpressing stable cells was assessed by measuring the enzymatic activities of cytoplasmic dehydrogenases (CCK8 assay) and the concentrations of lactate dehydrogenase (LDH) secreted into the cell media, which reflect the cell viability and cytotoxicity, respectively. […] In the presence of […] ASC06-IgG1, approximately 45% of the ASIC1a expressing stable cells survived at pH 5.5 comparing to about a 5% survival rate in the absence of the antibody. Consistent with CCK8 result, the concentration of LDH released into cell media decreased after the addition of ASC06-IgG1 is also in a dose-dependent manner (FIG. 7D).

B1: ASC06-IgG1: ASC06 antibody converted into a full length IgG1 form (antibody, V domains shown)
VH: QVQLQQSGGGLVQPGGSLRLSCAASGFTFSSYAMSWVRQAPGKGLEWVSAISGSGGSTYYADSVKGRFTISRDNSKNTLYLQMNSLRAEDTAVYYCAKDSFYGYSKGDWGQGTLVTVSS
VL: QSALTQPASVSGSPGQSITISCTGTSSDVGAYNYVSWYQQQPGKAPKLMIYGVSNRPSGVSNRFSGSKSGNAASLTISGLQAEDEADYYCSSYTSSSTYVFGTGTKLTVLG
Question: Which results are given for B1?
Answer: binding to KO neurons transfected with hASIC1a-mCherry ([1]; transfected with hASIC1a-mCherry): binding occurs in the postsynaptic dendrites; binding to primary neurons from the KO mice ([1]; untransfected ASIC1a−/− neurons): no apparent binding; survival of ASIC1a expressing stable cells ([2]; 1,000 nM antibody, pH 5.5, CCK8): approximately 45%; protective effect against acidosis-induced cell death, in words ([2]; pH 5.5): significant dose-dependent protective effect; concentration of LDH released into cell media ([2]; pH 5.5, dose-dependent): decreased
